Patent US20220177587A1, “METHODS AND USES OF VARIANT CD80 FUSION PROTEINS AND RELATED CONSTRUCTS” (Alpine Immune Sciences, Inc., priority 2018, published 2022)

What was measured:
CD28 (human) [1] = biological target: CD28 (human) (UniProt P10747); test: flow cytometry, Jurkat/IL2 reporter cells (endogenous CD28)
human PD-L1 (human) [2] = biological target: human PD-L1 (human) (UniProt Q9NZQ7); test: flow cytometry, CHO cells expressing huPD-L1
human PD-L1 (human) [3] = biological target: human PD-L1 (human) (UniProt Q9NZQ7); test: flow cytometry, CHO cells expressing huPD-L1; MFI ratio to WT CD80 ECD-Fc (R&D)
human CTLA-4 (human) [4] = biological target: human CTLA-4 (human) (UniProt P16410); test: flow cytometry, CHO cells expressing huCTLA4
Chain of human CTLA-4 (human) (P16410 36-223): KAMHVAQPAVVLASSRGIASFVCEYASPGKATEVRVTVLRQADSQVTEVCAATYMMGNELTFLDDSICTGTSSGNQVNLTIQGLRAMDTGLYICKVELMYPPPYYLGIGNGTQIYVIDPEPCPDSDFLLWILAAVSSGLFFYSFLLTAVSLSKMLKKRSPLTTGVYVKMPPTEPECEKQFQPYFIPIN

human CTLA-4 (human) [5] = biological target: human CTLA-4 (human) (UniProt P16410); test: flow cytometry, CHO cells expressing huCTLA4; MFI ratio to WT CD80 ECD-Fc (R&D)
CD28 (human) [6] = biological target: CD28 (human) (UniProt P10747); test: flow cytometry, Jurkat/IL2 reporter cells (endogenous CD28); MFI ratio to WT CD80 ECD-Fc (R&D)
human PD-L1 (human) [7] = biological target: human PD-L1 (human) (UniProt Q9NZQ7); test: flow cytometry; binding to PD-L1 cells against binding of the same variant to CD28 cells

Chain of human PD-L1 (human) (Q9NZQ7 19-290): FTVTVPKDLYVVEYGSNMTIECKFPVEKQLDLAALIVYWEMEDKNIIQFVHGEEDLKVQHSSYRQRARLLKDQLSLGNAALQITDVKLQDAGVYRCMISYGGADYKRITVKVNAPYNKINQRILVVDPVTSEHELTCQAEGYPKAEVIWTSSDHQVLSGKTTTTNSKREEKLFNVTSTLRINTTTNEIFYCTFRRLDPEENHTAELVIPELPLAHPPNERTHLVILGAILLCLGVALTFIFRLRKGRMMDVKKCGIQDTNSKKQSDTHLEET

Row | Binder | MFI at 33.3 nM (CD28 (human) [1]) [MFI] | MFI at 33.3 nM (human PD-L1 (human) [2]) [MFI] | Fold change to WT (human PD-L1 (human) [3]) [fold] | MFI at 33.3 nM (human CTLA-4 (human) [4]) [MFI] | Fold change to WT CD80 (human CTLA-4 (human) [5]) [fold] | Fold change to WT (CD28 (human) [6]) [fold] | Ratio of PDL1:CD28 (human PD-L1 (human) [7])
1 | variant CD80 IgV-Fc A26E/Q33R/E35D/M47L/L85Q/K86E (Fc fusion) VIHVTKEVKEVATLSCGHNVSVEELEQTRIYWRKDKKMVLTMMSGDLNIWPEYKNRTIFDITNNLSIVILALRPSDEGTYECVVQEYEKDAFKREHLAEVTLSVKAD | 275 | 76000 | 9.56 | 1280 | 0.01 | 0.04 | 276
2 | variant CD80 IgV-Fc H18Y/E35D/M47L (Fc fusion) VIHVTKEVKEVATLSCGYNVSVEELAQTRIYWQKDKKMVLTMMSGDLNIWPEYKNRTIFDITNNLSIVILALRPSDEGTYECVVLKYEKDAFKREHLAEVTLSVKAD | 5070 | 44200 | 5.56 | 284000 | 1.59 | 0.66 | 9
3 | variant CD80 IgV-Fc A26E/Q33L/E35D/M47L/L85Q (Fc fusion) VIHVTKEVKEVATLSCGHNVSVEELEQTRIYWLKDKKMVLTMMSGDLNIWPEYKNRTIFDITNNLSIVILALRPSDEGTYECVVQKYEKDAFKREHLAEVTLSVKAD | 274 | 62700 | 7.89 | 1170 | 0.01 | 0.04 | 229
4 | variant CD80 IgV-Fc A26E/Q33L/E35D/M47L (Fc fusion) VIHVTKEVKEVATLSCGHNVSVEELEQTRIYWLKDKKMVLTMMSGDLNIWPEYKNRTIFDITNNLSIVILALRPSDEGTYECVVLKYEKDAFKREHLAEVTLSVKAD | 271 | 60900 | 7.67 | 1320 | 0.01 | 0.04 | 225
5 | variant CD80 IgV-Fc H18Y/A26E/Q33L/E35D/M47L/L85Q (Fc fusion) VIHVTKEVKEVATLSCGYNVSVEELEQTRIYWLKDKKMVLTMMSGDLNIWPEYKNRTIFDITNNLSIVILALRPSDEGTYECVVQKYEKDAFKREHLAEVTLSVKAD | 272 | 76600 | 9.64 | 2090 | 0.01 | 0.04 | 282
6 | variant CD80 IgV-Fc Q33L/E35D/M47I (Fc fusion) VIHVTKEVKEVATLSCGHNVSVEELAQTRIYWLKDKKMVLTMMSGDINIWPEYKNRTIFDITNNLSIVILALRPSDEGTYECVVLKYEKDAFKREHLAEVTLSVKAD | 282 | 37400 | 4.7 | 15900 | 0.09 | 0.04 | 132
7 | variant CD80 IgV-Fc A26E/E35D/M43T/M47L/L85Q/R94Q (Fc fusion) VIHVTKEVKEVATLSCGHNVSVEELEQTRIYWQKDKKMVLTMTSGDLNIWPEYKNRTIFDITNNLSIVILALRPSDEGTYECVVQKYEKDAFKQEHLAEVTLSVKAD | 260 | 68100 | 8.57 | 278000 | 1.56 | 0.03 | 262
8 | variant CD80 IgV-Fc Q33L/E35D/M47I/L85Q (Fc fusion) VIHVTKEVKEVATLSCGHNVSVEELAQTRIYWLKDKKMVLTMMSGDINIWPEYKNRTIFDITNNLSIVILALRPSDEGTYECVVQKYEKDAFKREHLAEVTLSVKAD | 287 | 63900 | 8.05 | 20500 | 0.11 | 0.04 | 222
9 | variant CD80 IgV-Fc A26E/Q33R/E35D/M47L/L85Q (Fc fusion) VIHVTKEVKEVATLSCGHNVSVEELEQTRIYWRKDKKMVLTMMSGDLNIWPEYKNRTIFDITNNLSIVILALRPSDEGTYECVVQKYEKDAFKREHLAEVTLSVKAD | 264 | 81500 | 10.3 | 1280 | 0.01 | 0.03 | 309
10 | variant CD80 IgV-Fc E7D/E35D/M47I/L97Q (Fc fusion) VIHVTKDVKEVATLSCGHNVSVEELAQTRIYWQKDKKMVLTMMSGDINIWPEYKNRTIFDITNNLSIVILALRPSDEGTYECVVLKYEKDAFKREHQAEVTLSVKAD | 273 | 14600 | 1.84 | 271000 | 1.52 | 0.04 | 54
11 | variant CD80 IgV-Fc H18Y/Q33L/E35D/M47I (Fc fusion) VIHVTKEVKEVATLSCGYNVSVEELAQTRIYWLKDKKMVLTMMSGDINIWPEYKNRTIFDITNNLSIVILALRPSDEGTYECVVLKYEKDAFKREHLAEVTLSVKAD | 295 | 47800 | 6.02 | 5540 | 0.03 | 0.04 | 162

Other lines, results leading:

Row | MFI at 33.3 nM (CD28 (human) [1]) [MFI] | MFI at 33.3 nM (human PD-L1 (human) [2]) [MFI] | Fold change to WT (human PD-L1 (human) [3]) [fold] | MFI at 33.3 nM (human CTLA-4 (human) [4]) [MFI] | Fold change to WT CD80 (human CTLA-4 (human) [5]) [fold] | Fold change to WT (CD28 (human) [6]) [fold] | Ratio of PDL1:CD28 (human PD-L1 (human) [7]) | Binder
12 | 284 | 72600 | 9.14 | 1660 | 0.01 | 0.04 | 256 | variant CD80 IgV-Fc Q33L/E35D/M47I/T62N/L85Q (Fc fusion) VIHVTKEVKEVATLSCGHNVSVEELAQTRIYWLKDKKMVLTMMSGDINIWPEYKNRTIFDINNNLSIVILALRPSDEGTYECVVQKYEKDAFKREHLAEVTLSVKAD
13 | 268 | 47400 | 5.97 | 75400 | 0.42 | 0.04 | 177 | variant CD80 IgV-Fc Q33L/E35D/M47V/L85Q (Fc fusion) VIHVTKEVKEVATLSCGHNVSVEELAQTRIYWLKDKKMVLTMMSGDVNIWPEYKNRTIFDITNNLSIVILALRPSDEGTYECVVQKYEKDAFKREHLAEVTLSVKAD
14 | 433 | 44900 | 5.66 | 6390 | 0.04 | 0.06 | 104 | variant CD80 IgV-Fc Q33L/E35D/T41S/M43I (Fc fusion) VIHVTKEVKEVATLSCGHNVSVEELAQTRIYWLKDKKMVLSMISGDMNIWPEYKNRTIFDITNNLSIVILALRPSDEGTYECVVLKYEKDAFKREHLAEVTLSVKAD
15 | 287 | 43800 | 5.52 | 14500 | 0.08 | 0.04 | 153 | variant CD80 IgV-Fc Q33L/E35D/T41S/M47V (Fc fusion) VIHVTKEVKEVATLSCGHNVSVEELAQTRIYWLKDKKMVLSMMSGDVNIWPEYKNRTIFDITNNLSIVILALRPSDEGTYECVVLKYEKDAFKREHLAEVTLSVKAD
16 | 274 | 75500 | 9.51 | 3640 | 0.02 | 0.04 | 275 | variant CD80 IgV-Fc V22A/E23D/Q33L/E35D/M47V (Fc fusion) VIHVTKEVKEVATLSCGHNVSADELAQTRIYWLKDKKMVLTMMSGDVNIWPEYKNRTIFDITNNLSIVILALRPSDEGTYECVVLKYEKDAFKREHLAEVTLSVKAD
